Experimental data published in US20210371491A1, “CHIMERIC ANTIGEN RECEPTORS THAT BIND TO PROSTATE SPECIFIC MEMBRANE ANTIGEN” (Albert-Ludwigs-Universitaet Freiburg, priority 2018, published 2021).

Target: prostate specific membrane antigen (PSMA) (UniProt Q04609)
Assay: cell-based or functional assay

Chain of prostate specific membrane antigen (PSMA) (Q04609 whole entry, form in doubt): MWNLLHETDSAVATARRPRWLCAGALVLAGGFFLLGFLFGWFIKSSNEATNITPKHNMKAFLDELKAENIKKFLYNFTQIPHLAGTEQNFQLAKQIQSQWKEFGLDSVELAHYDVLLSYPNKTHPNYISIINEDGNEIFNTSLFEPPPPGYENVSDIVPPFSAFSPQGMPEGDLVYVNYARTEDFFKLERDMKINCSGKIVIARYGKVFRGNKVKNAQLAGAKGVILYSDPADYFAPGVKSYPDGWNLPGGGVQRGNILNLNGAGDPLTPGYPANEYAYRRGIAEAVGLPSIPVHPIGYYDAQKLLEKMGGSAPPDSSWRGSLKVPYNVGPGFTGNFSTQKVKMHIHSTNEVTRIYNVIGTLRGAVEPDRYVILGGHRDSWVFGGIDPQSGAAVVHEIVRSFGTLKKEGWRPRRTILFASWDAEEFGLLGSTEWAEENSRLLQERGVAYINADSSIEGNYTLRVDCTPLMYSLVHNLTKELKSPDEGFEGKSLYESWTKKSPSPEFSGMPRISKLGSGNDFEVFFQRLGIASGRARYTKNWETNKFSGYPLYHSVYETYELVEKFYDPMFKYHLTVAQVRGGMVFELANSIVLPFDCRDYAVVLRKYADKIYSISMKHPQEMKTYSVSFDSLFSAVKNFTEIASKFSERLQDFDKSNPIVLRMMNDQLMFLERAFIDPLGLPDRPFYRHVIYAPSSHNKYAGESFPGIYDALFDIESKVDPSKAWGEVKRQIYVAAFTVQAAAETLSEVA

With “CAR28 (J591), anti-PSMA CAR with scFv derived from antibody J591” the percentage of CD69-positive CAR Jurkat cells after 24 h stimulation with PSMA-positive tumor cells (C4-2, LNCaP), E:T 1:1 was 70%.
